Source: the supplement of paper PMC7125110
± gives the standard error. This sample holds only a part of the variants without activity.

B1: glmS ribozyme (parent)
chain: AUAAAAGCGCCAGAACUACAGAAAUGUAGUUGACGAGGAGGAGGUUUAUCGAAUUUUCGGCGGAUGCCUCCAAA

Columns and labels:
Conditions in all cases: with glucosamine-6-phosphate
glucosamine-6-phosphate [1] = variants of: B1; assay: self-cleavage kobs at 40 uM GlcN6P; higher = faster cleavage; RNA array
In short: (§1)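 E. coli RNA polymerase transcribed barcoded ribozyme variants in situ on sequenced MiSeq chips, which were tracked via a hybridised Cy3 probe at 37 °C. Tiles were imaged over ~14 h after glucosamine-6-phosphate (40 μM to 10 mM) in HEPES/KCl/Mg(OAc)2 buffer was flowed in. Normalised per-tile medians were fit to one- or two-exponential decays for kobs, and kcat and KM came from weighted Michaelis–Menten fits.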

glucosamine-6-phosphate [2] = variants of: B1; assay: self-cleavage kobs at 640 uM GlcN6P; higher = faster cleavage; RNA array
In short: as §1

glucosamine-6-phosphate [3] = variants of: B1; assay: self-cleavage kobs at 2500 uM GlcN6P; higher = faster cleavage; RNA array
In short: as §1

glucosamine-6-phosphate [4] = variants of: B1; assay: self-cleavage kobs at 10000 uM GlcN6P; higher = faster cleavage; RNA array
In short: as §1

glucosamine-6-phosphate [5] = variants of: B1; assay: self-cleavage kobs at 160 uM GlcN6P; higher = faster cleavage; RNA array
In short: as §1

Variant	self-cleavage kobs at 40 uM GlcN6P (glucosamine-6-phosphate [1]) [s⁻¹]	self-cleavage kobs at 640 uM GlcN6P (glucosamine-6-phosphate [2]) [s⁻¹]	self-cleavage kobs at 2500 uM GlcN6P (glucosamine-6-phosphate [3]) [s⁻¹]	self-cleavage kobs at 10000 uM GlcN6P (glucosamine-6-phosphate [4]) [s⁻¹]	self-cleavage kobs at 160 uM GlcN6P (glucosamine-6-phosphate [5]) [s⁻¹]
U55A G62U	< 1e-05	< 1e-05	< 1e-05	< 1e-05	
U56C U69C C70A	< 1e-05	< 1e-05	< 1e-05	< 1e-05	< 1e-05
A52G G62C	< 1e-05	< 1e-05		< 1e-05	< 1e-05
A48C C58U	< 1e-05	< 1e-05		< 1e-05	< 1e-05
A48U U49A	< 1e-05	< 1e-05			< 1e-05
C50A C58U C61U G63U	< 1e-05				
C50U C61U	< 1e-05	< 1e-05	< 1e-05	< 1e-05	
C50U U57A G60U	< 1e-05			< 1e-05	
G51U U57C	< 1e-05	< 1e-05		< 1e-05	
A52G G60C	< 1e-05	< 1e-05	< 1e-05		< 1e-05
G59C C61G	< 1e-05			< 1e-05	< 1e-05
A48C U69G	< 1e-05			< 1e-05	< 1e-05
A48U C67U C70U	< 1e-05		< 1e-05		
A48U G63U	< 1e-05	< 1e-05	< 1e-05	< 1e-05	< 1e-05
U49C G59A C67G	< 1e-05	< 1e-05		< 1e-05	< 1e-05
U55G C70U	0.0011 ± 0.00013	0.0043 ± 0.0011			0.00151 ± 0.00031
G51U A53C C67G	< 1e-05				
G59C C68U	< 1e-05				
G51A U54A U55A	< 1e-05				
A52G U65A U69G C70U	5.09e-05 ± 1.9e-05			3.34e-05 ± 1.4e-05	
U55G C61A G66C C70A	0.000162 ± 4.4e-05	0.000153 ± 3.1e-05	8.3e-05 ± 1.7e-05		0.000108 ± 2.1e-05
G59A G63C	< 1e-05	< 1e-05	< 1e-05		< 1e-05

Variant	self-cleavage kobs at 40 uM GlcN6P (glucosamine-6-phosphate [1]) [s⁻¹]	self-cleavage kobs at 640 uM GlcN6P (glucosamine-6-phosphate [2]) [s⁻¹]	self-cleavage kobs at 2500 uM GlcN6P (glucosamine-6-phosphate [3]) [s⁻¹]	self-cleavage kobs at 10000 uM GlcN6P (glucosamine-6-phosphate [4]) [s⁻¹]	self-cleavage kobs at 160 uM GlcN6P (glucosamine-6-phosphate [5]) [s⁻¹]
U55G C71U	0.00104 ± 0.00015	0.00353 ± 0.0005	0.0044 ± 0.00066	0.034 ± 0.0078	0.00128 ± 0.00022
U54G G62C U69C	< 1e-05			< 1e-05	
U56A C70U C71U	5.46e-05 ± 1.5e-05	8.84e-05 ± 1.7e-05	0.000232 ± 5.2e-05	8.85e-05 ± 1.7e-05	
C50G G59U C67G	0.000108 ± 1.9e-05		0.000245 ± 5.2e-05	5.5e-05 ± 1.5e-05	
U54A C70G	6.49e-05 ± 8.1e-06	0.00033 ± 5.7e-05	0.000176 ± 2.2e-05	0.000131 ± 1.5e-05	6.78e-05 ± 1e-05
C50A G63C	< 1e-05			< 1e-05	< 1e-05
G51C C61A	< 1e-05	< 1e-05	< 1e-05	< 1e-05	
U54C C71U	0.000802 ± 8.6e-05	0.00401 ± 0.00061	0.0101 ± 0.0027	0.036 ± 0.0094	0.00142 ± 0.00023
A48U G62C C70U	< 1e-05	< 1e-05	< 1e-05	< 1e-05	
A52C C68G	4.36e-05 ± 1.5e-05	0.000126 ± 3.5e-05		2.34e-05 ± 1.1e-05	
U54G G62C	< 1e-05	< 1e-05	< 1e-05	< 1e-05	< 1e-05
U54G U56C	6.58e-05 ± 1.3e-05	0.000986 ± 0.00024	0.00123 ± 0.00029	0.00518 ± 0.0011	0.000146 ± 2.8e-05
U55C C61U	< 1e-05				
U47G G66A C70U	0.000121 ± 3e-05			0.00591 ± 0.0017	
U54C U56A	0.000356 ± 6.9e-05	0.00291 ± 0.00036	0.00483 ± 0.00092	0.0163 ± 0.0038	0.000584 ± 0.00011
A53C C61G	< 1e-05	< 1e-05		< 1e-05	
A53C C61U	< 1e-05	< 1e-05			< 1e-05
G51C A53C	< 1e-05	< 1e-05			
G51C A53U	< 1e-05		< 1e-05		< 1e-05
A52C U55A	< 1e-05			3.4e-05 ± 1.3e-05	
U47A G62U	< 1e-05	< 1e-05	< 1e-05	< 1e-05	< 1e-05
U56A C67U	0.000175 ± 1.9e-05	0.000938 ± 8.9e-05	0.00474 ± 0.00085	0.00679 ± 0.0012	0.000452 ± 6.1e-05

Variant	self-cleavage kobs at 40 uM GlcN6P (glucosamine-6-phosphate [1]) [s⁻¹]	self-cleavage kobs at 640 uM GlcN6P (glucosamine-6-phosphate [2]) [s⁻¹]	self-cleavage kobs at 2500 uM GlcN6P (glucosamine-6-phosphate [3]) [s⁻¹]	self-cleavage kobs at 10000 uM GlcN6P (glucosamine-6-phosphate [4]) [s⁻¹]	self-cleavage kobs at 160 uM GlcN6P (glucosamine-6-phosphate [5]) [s⁻¹]
G59A U65G	< 1e-05				
C50G C61U A64G	0.000244 ± 8.5e-05	0.000192 ± 8.3e-05		4.62e-05 ± 1.7e-05	8.89e-05 ± 3.2e-05
A48C C61A	< 1e-05	< 1e-05		< 1e-05	
U56C G59A	< 1e-05				
G51A G62C	< 1e-05	< 1e-05	< 1e-05	< 1e-05	< 1e-05
A52C U56C	< 1e-05		< 1e-05		
G59C C67G C70G	< 1e-05				
U47G C58U C70A	7.14e-05 ± 3e-05		9.31e-05 ± 2e-05	4.44e-05 ± 2.1e-05	
A53U G59U	< 1e-05			4.13e-05 ± 7.7e-06	
U47G U56G G63U	< 1e-05				
U57A U65C	< 1e-05	< 1e-05			
U47C C61U	< 1e-05	< 1e-05	< 1e-05	< 1e-05	< 1e-05
U55A C67U	0.000401 ± 8.2e-05	0.00589 ± 0.0022		0.0154 ± 0.0038	0.000667 ± 0.00022
U55A C67A	0.000444 ± 0.00015	0.00115 ± 0.00052		0.00563 ± 0.0018	
A53G C71U	0.000921 ± 0.00014	0.00661 ± 0.0013		0.0402 ± 0.013	0.0017 ± 0.00029
U49A G63C U69C	< 1e-05				
A48C G66C	< 1e-05			3.05e-05 ± 1.2e-05	< 1e-05
C50U G59C	< 1e-05	< 1e-05	< 1e-05	< 1e-05	< 1e-05
U47A G60A	< 1e-05		< 1e-05		< 1e-05
U49C C50A	< 1e-05				< 1e-05
C50G C61A A64U	9.82e-05 ± 1.8e-05			0.000113 ± 1.8e-05	
A48U C50G C67U	0.000126 ± 4.4e-05				

Variant	self-cleavage kobs at 40 uM GlcN6P (glucosamine-6-phosphate [1]) [s⁻¹]	self-cleavage kobs at 640 uM GlcN6P (glucosamine-6-phosphate [2]) [s⁻¹]	self-cleavage kobs at 2500 uM GlcN6P (glucosamine-6-phosphate [3]) [s⁻¹]	self-cleavage kobs at 10000 uM GlcN6P (glucosamine-6-phosphate [4]) [s⁻¹]	self-cleavage kobs at 160 uM GlcN6P (glucosamine-6-phosphate [5]) [s⁻¹]
U49C C61A C70U	< 1e-05			< 1e-05	
A53G U54A	0.000851 ± 0.00024	0.0083 ± 0.0014	0.0106 ± 0.0043	0.0724 ± 0.027	0.00267 ± 0.00057
A53G U54G	0.00114 ± 0.00028	0.00511 ± 0.0011	0.00388 ± 0.0012	0.081 ± 0.028	0.00165 ± 0.00047
C50A G62U G63A	< 1e-05	< 1e-05	< 1e-05	< 1e-05	< 1e-05
U57C G62U U65C	< 1e-05			< 1e-05	
C50G G63A C68A U69C	0.000106 ± 2.3e-05			0.000147 ± 2.8e-05	
A53U U54A C68U	0.00036 ± 9.6e-05			0.013 ± 0.0042	
U47G C71U	0.000224 ± 2.2e-05	0.001 ± 0.00012	0.00216 ± 0.00038	0.00702 ± 0.00088	0.000648 ± 8.2e-05
U47G G60U	< 1e-05		< 1e-05		< 1e-05
G51U A53C	< 1e-05	< 1e-05			< 1e-05
U49A C67A U69C	< 1e-05				
U49G C61U	< 1e-05				< 1e-05
A53G C67A	0.000314 ± 3.3e-05	0.00067 ± 0.00014	0.000612 ± 0.00025	0.00957 ± 0.0018	
C58A G59U C68U	< 1e-05				
U49G A53U U56A C67A C70A	4.31e-05 ± 1.9e-05		0.000146 ± 2.4e-05		
G59C G60U	< 1e-05	< 1e-05	< 1e-05	< 1e-05	< 1e-05
C50A G51C	< 1e-05			< 1e-05	
U56C C68U	< 1e-05	< 1e-05			
A48U C61U	< 1e-05	< 1e-05			
G59C G62U	< 1e-05			< 1e-05	< 1e-05
